Results reported in article PMC5864917 (2018).

T1: SERA5 SE36 (Plasmodium falciparum, UniProt Q9TY95)
T1 chain: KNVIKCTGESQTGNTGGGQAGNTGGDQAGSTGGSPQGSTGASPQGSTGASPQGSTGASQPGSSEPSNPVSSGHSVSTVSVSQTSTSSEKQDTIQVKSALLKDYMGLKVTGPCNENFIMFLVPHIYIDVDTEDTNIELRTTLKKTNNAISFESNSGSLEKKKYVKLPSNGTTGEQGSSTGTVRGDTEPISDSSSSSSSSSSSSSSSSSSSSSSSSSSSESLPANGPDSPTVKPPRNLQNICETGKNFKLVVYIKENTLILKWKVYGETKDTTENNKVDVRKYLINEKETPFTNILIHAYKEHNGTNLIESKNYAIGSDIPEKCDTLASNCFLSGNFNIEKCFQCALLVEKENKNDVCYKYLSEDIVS


Experiments:
[1] = biological target: biotinylated SE36 (Plasmodium falciparum (Honduras-1)); assay: SPR; Biacore T200, chip SA; biotinylated SE36 immobilized at 200 RU via streptavidin; purified VTN 1.25-20 μg/mL (~17.9-285.7 nM) flowed at 20 μL/min, 25 °C, PBS with 0.05% Tween 20; fitted to 1:1 binding and bivalent analyte models
SERA5 SE36 = biological target: T1, SERA5 SE36; assay: SPR

Molecule | KD1 (bivalent analyte model, first interaction) [1] [nM] | ka1 (bivalent analyte model, first interaction) [1] [M⁻¹ s⁻¹] | kd1 (bivalent analyte model, first interaction) [1] [s⁻¹] | Kd (SERA5 SE36) [nM]
Vitronectin (VTN), human (natural protein) | 3.7 | 550000 | 0.002 | –
Vitronectin (protein) ATWLSLFSSEESNLGANNYDDYRMDWLVPATCEPIQSVFFFSGDKYYRVNLRTRRVDTVDPPYPRSIAQYWLGCPAPGHL | – | – | – | 3.7
